B1: full-length BICD2 tagged on the C-terminus with mini-TurboID (BICD2-mTrbo) [human] / Dynein intermediate chain (DYNC1I1) [human (endogenous in HEK293)] (parent)
chain 1: MSAPSEEEEYARLVMEAQPEWLRAEVKRLSHELAETTREKIQAAEYGLAVLEEKHQLKLQFEELEVDYEAIRSEMEQLKEAFGQAHTNHKKVAADGESREESLIQESASKEQYYVRKVLELQTELKQLRNVLTNTQSENERLASVAQELKEINQNVEIQRGRLRDDIKEYKFREARLLQDYSELEEENISLQKQVSVLRQNQVEFEGLKHEIKRLEEETEYLNSQLEDAIRLKEISERQLEEALETLKTEREQKNSLRKELSHYMSINDSFYTSHLHVSLDGLKFSDDAAEPNNDAEALVNGFEHGGLAKLPLDNKTSTPKKEGLAPPSPSLVSDLLSELNISEIQKLKQQLMQMEREKAGLLATLQDTQKQLEHTRGSLSEQQEKVTRLTENLSALRRLQASKERQTALDNEKDRDSHEDGDYYEVDINGPEILACKYHVAVAEAGELREQLKALRSTHEAREAQHAEEKGRYEAEGQALTEKVSLLEKASRQDRELLARLEKELKKVSDVAGETQGSLSVAQDELVTFSEELANLYHHVCMCNNETPNRVMLDYYREGQGGAGRTSPGGRTSPEARGRRSPILLPKGLLAPEAGRADGGTGDSSPSPGSSLPSPLSDPRREPMNIYNLIAIIRDQIKHLQAAVDRTTELSRQRIASQELGPAVDKDKEALMEEILKLKSLLSTKREQITTLRTVLKANKQTAEVALANLKSKYENEKAMVTETMMKLRNELKALKEDAATFSSLRAMFATRCDEYITQLDEMQRQLAAAEDEKKTLNSLLRMAIQQKLALTQRLELLELDHEQTRRGRAKAAPKTKPATPSL
chain 2: MSDKSDLKAELERKKQRLAQIREEKKRKEEERKKKEADMQQKKEPVQDDSDLDRKRRETEALLQSIGISPEPPLVQPLHFLTWDTCYFHYLVPTPMSPSSKSVSTPSEAGSQDSGDLGPLTRTLQWDTDPSVLQLQSDSELGRRLHKLGVSKVTQVDFLPREVVSYSKETQTPLATHQSEEDEEDEEMVESKVGQDSELENQDKKQEVKEAPPRELTEEEKQQILHSEEFLIFFDRTIRVIERALAEDSDIFFDYSGRELEEKDGDVQAGANLSFNRQFYDEHWSKHRVVTCMDWSLQYPELMVASYNNNEDAPHEPDGVALVWNMKFKKTTPEYVFHCQSSVMSVCFARFHPNLVVGGTYSGQIVLWDNRSHRRTPVQRTPLSAAAHTHPVYCVNVVGTQNAHNLITVSTDGKMCSWSLDMLSTPQESMELVYNKSKPVAVTGMAFPTGDVNNFVVGSEEGTVYTACRHGSKAGIGEVFEGHQGPVTGINCHMAVGPIDFSHLFVTSSFDWTVKLWTTKHNKPLYSFEDNADYVYDVMWSPVHPALFACVDGMGRLDLWNLNNDTEVPTASVAIEGASALNRVRWAQAGKEVAVGDSEGRIWVYDVGELAVPHNDEWTRFARTLVEIRANRADSEEEGTVELSA

Variants of: B1
Experiment: co-immunoprecipitation (V5 trap beads) with western blot quantification
Settings: parent: 1, read off a plot

Variant	ratio to parent
chain 1 R747C	4.6
chain 1 N188T	1.8
chain 1 R694C	5.1

Source: article PMC12674617
